This is an account of results in paper PMC3623634 (Molecular Biology of the Cell, 2013).

For test [1], the target named is T1, GST-Alp7 (full-length Alp7/TACC fused to GST) (fission yeast, UniProt Q9URY2 1-474).
T1 sequence (looked up): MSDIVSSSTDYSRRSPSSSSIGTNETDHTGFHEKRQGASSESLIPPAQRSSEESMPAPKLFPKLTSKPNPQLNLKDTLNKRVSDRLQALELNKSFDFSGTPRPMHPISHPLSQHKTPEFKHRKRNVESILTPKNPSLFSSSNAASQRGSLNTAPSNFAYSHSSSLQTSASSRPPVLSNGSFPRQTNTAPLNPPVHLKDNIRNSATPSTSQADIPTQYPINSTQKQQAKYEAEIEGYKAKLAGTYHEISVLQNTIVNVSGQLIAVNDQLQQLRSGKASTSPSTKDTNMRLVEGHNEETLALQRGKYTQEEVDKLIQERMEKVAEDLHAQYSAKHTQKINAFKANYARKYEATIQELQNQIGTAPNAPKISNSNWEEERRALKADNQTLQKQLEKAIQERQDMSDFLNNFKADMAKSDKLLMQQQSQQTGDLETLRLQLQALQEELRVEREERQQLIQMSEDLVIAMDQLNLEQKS
Briefly: peptide or protein array.

Test [2] deals with T2, GST-Alp7C (C-terminal half of Alp7, TACC domain, residues 219-474) (fission yeast, UniProt Q9URY2 219-474).
T2 sequence (looked up): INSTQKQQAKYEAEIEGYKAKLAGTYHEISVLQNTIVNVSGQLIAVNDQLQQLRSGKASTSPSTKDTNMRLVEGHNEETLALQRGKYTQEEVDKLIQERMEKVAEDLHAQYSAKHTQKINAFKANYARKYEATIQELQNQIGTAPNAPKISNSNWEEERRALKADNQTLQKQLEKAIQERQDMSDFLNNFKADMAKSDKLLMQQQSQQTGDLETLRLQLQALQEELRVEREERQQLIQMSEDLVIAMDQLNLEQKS
The test is described as follows: peptide or protein array.

As to DSLEKKVQKLNSLA (peptide, UniProt Q10198 411-424, looked up) [Ndc80 loop peptide (411-424) with F420 replaced by leucine], the binding result in test [1] and in test [2] was “binds” each time.
DSLEKKVQKINSLA (peptide, UniProt Q10198 411-424, looked up) [Ndc80 loop peptide (411-424) with F420 replaced by isoleucine]: the binding result in test [1] and in test [2] was “binds” throughout.
